According to paper PMC11580931 (bioRxiv, 2024):
Changes are numbered by the printed parent chain. Numbers in names are those of the source.

T1: 3-pHis peptide (biotin-aminocaproic acid-AGAG-3-pHis-AGAG)
T1 sequence (peptide, biotin-aminocaproic acid on the N-terminus; 3-phosphohistidine at position 5): AGAGHAGAG

B1: rSC44 IgG (rabbit SC44-8 anti-3-pTza/3-pHis mAb) (antibody, V domains shown)
VH: QSVKESGRGLVQPGGSLTLTCTASGFSIDSYGFSWVRQAPGKGLEHIGYLTAGGRAFYASWAKSRSTITRNTNENTVTLKMTSLTAADTATYFCAKLGSGNPVAIWGPGTLVTVSS
VL: QVLTQTPSFTSAAVGGTVTINCQSSQSVWRNKNLAWYQQKPGQPPKRLIYAIATLDSGVPSRFSGSGSGTQFTLTISDVQCDDAATYYCVGHYGSENDAYYAFGGGTEVVVK
B2: hSC44.20.N32F^L IgG (antibody, V domains shown)
VH: EVQLVESGGGLVQPGGSLRLSCTASGFSIDSYGFSWVRQAPGKGLEHIGYLTAGGRAFYASWAKSRSTITRNTNENTVTLKMNSLRAEDTAVYYCAKLGTGSRFAIWGQGTLVTVSS
VL: DIQMTQSPSSLSASVGDRVTITCRASQSVWRNKFVAWYQQKPGKAPKRLIYAIASLYSGVPSRFSGSGSGTDFTLTISSLQPEDFATYYCVGHYGSENDAYYAFGQGTKVEIK
B3: hSC44.20 IgG (antibody, V domains shown)
VH: B2 VH
VL: B2 VL with F34N
B4: hSC44.20.N32Y^L IgG (antibody, V domains shown)
VH: B2 VH
VL: B2 VL with F34Y
B5: hSC44 IgG (humanized version of rSC44) (antibody, V domains shown)
VH: B2 VH with T100S, S102N, R103P, F104V
VL: B2 VL with F34N
B6: hSC44.8 IgG (antibody, V domains shown)
VH: EVQLVESGGGLVQPGGSLRLSCTASGFSIDSYGFSWVRQAPGKGLEHIGYLTAGGRAFYASWAKSRSTITRNTNENTVTLKMNSLRAEDTAVYYCAKIGTGSRVAIWG
VL: B2 VL with F34N
B7: hSC44.1 IgG (antibody, V domains shown)
VH: B2 VH with R103P, F104I
VL: B2 VL with F34N
B8: hSC44.3 IgG (antibody, V domains shown)
VH: B6 VH with T100S, R103P
VL: B2 VL with F34N
B9: hSC44.13 IgG (antibody, V domains shown)
VH: B6 VH with I98L, R103P
VL: B2 VL with F34N
B10: hSC44.31 IgG (antibody, V domains shown)
VH: B2 VH with S102T, R103P
VL: B2 VL with F34Y
B11: hSC44.22 IgG (antibody, V domains shown)
VH: B6 VH with I98L, S102T, R103P
VL: B2 VL with F34N
B12: hSC44.28 IgG (antibody, V domains shown)
VH: B6 VH with I98L, R103P, V104L
VL: B2 VL

Each binder was assayed against 3-pHis form of ACLY (120 kDa) (Homo sapiens (HEK293T, endogenous), UniProt P53396, 3-phosphohistidine (residue not stated)) (assay: immunoblot).
Chain of 3-pHis form of ACLY (120 kDa) (P53396 whole entry): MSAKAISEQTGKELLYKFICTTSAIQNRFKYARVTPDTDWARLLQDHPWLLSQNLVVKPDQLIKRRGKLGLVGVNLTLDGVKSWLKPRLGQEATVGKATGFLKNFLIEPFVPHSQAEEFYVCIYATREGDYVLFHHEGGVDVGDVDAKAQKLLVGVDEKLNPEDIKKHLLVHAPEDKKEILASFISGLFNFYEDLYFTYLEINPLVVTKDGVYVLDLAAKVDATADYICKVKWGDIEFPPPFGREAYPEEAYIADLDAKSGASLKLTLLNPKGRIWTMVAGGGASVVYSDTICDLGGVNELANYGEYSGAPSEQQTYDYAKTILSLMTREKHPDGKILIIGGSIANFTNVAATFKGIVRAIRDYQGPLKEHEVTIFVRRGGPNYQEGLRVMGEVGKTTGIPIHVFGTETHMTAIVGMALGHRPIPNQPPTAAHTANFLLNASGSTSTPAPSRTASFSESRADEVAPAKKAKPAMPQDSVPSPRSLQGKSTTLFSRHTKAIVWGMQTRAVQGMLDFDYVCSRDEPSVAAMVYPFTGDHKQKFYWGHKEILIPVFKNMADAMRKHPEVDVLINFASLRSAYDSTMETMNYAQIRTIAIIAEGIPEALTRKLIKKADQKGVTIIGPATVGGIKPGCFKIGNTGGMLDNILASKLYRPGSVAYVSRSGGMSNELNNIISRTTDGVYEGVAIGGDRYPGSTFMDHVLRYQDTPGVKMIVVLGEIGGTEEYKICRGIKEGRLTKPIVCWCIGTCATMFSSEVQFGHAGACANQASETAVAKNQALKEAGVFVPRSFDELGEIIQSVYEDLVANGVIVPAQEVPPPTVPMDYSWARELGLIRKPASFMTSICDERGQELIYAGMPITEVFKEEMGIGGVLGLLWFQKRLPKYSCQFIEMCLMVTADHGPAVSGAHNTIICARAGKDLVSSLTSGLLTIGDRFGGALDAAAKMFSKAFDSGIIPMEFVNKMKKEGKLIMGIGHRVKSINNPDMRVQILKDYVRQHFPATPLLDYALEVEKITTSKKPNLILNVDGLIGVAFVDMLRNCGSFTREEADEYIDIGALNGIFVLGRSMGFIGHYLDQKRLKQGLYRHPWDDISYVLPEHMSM

Question: Does B1 bind?
Answer: binds

Question: Does B2 bind?
Answer: binds

Question: Does B3 bind?
Answer: binds

The binders below were run against T1, 3-pHis peptide (biotin-aminocaproic acid-AGAG-3-pHis-AGAG) (assay: BLI).

Question: What does the source list for B2?
Answer: Kd: 1.68 nM; koff: 1.64e-05 s⁻¹; kon: 13900 M⁻¹ s⁻¹

Question: B3 was tested. Which Kd did it give?
Answer: 21 nM

Question: What about the kon of the same binder?
Answer: 75500 M⁻¹ s⁻¹

Question: B4 was tested. Which Kd did it give?
Answer: 9.5 nM

Question: And the koff?
Answer: 2.61e-05 s⁻¹

Question: And the kon?
Answer: 8880 M⁻¹ s⁻¹

Each binder was assayed against 3-pTza peptide (Biotin-AminocaproicAcid-AGAG-3-pTza-AGAG) (assay: BLI).

Question: How did the Kd turn out when B5 was run?
Answer: 1.2 nM

Question: What does the source list for B2?
Answer: Kd: 1.54 nM; koff: 5.73e-05 s⁻¹; kon: 37300 M⁻¹ s⁻¹

Question: How did the Kd turn out when B3 was run?
Answer: < 0.001 nM

Question: And the kon?
Answer: 257000 M⁻¹ s⁻¹

Question: Which Kd does the source give for B4 here?
Answer: < 0.001 nM

Question: What about the kon of the same binder?
Answer: 35100 M⁻¹ s⁻¹

Question: With B6 as the binder, how does the Kd read?
Answer: 0.185 nM

Question: And the koff?
Answer: 6.66e-05 s⁻¹

Question: And the kon?
Answer: 359000 M⁻¹ s⁻¹

Question: With B7 as the binder, how does the Kd read?
Answer: 0.588 nM

Question: And the koff?
Answer: 8.32e-05 s⁻¹

Question: What about the kon of the same binder?
Answer: 141000 M⁻¹ s⁻¹

Question: Which results are given for B8?
Answer: Kd: 0.352 nM; koff: 1.43e-05 s⁻¹; kon: 40700 M⁻¹ s⁻¹

Question: For B9, which Kd is on record?
Answer: 0.405 nM

Question: And the koff?
Answer: 7.37e-05 s⁻¹

Question: And the kon?
Answer: 182000 M⁻¹ s⁻¹

Question: Which Kd does the source give for B10 here?
Answer: 2.71 nM

Question: And the koff?
Answer: 3.98e-05 s⁻¹

Question: And the kon?
Answer: 14700 M⁻¹ s⁻¹

Question: Which Kd does the source give for B11 here?
Answer: 0.495 nM

Question: And the koff?
Answer: 4.49e-05 s⁻¹

Question: And the kon?
Answer: 90600 M⁻¹ s⁻¹

Question: B12 was tested. Which Kd did it give?
Answer: 1.21 nM

Question: And the kon?
Answer: 24900 M⁻¹ s⁻¹
